In PMC6385242, “Identification and characterization of a factor Va-binding site on human prothrombin fragment 2” (Scientific Reports, 2019):

Key:
[1] = molecular target: Factor Va (UniProt P12259)
[2] = molecular target: Factor Va (UniProt P12259); remark: listed apart in the source
[3] = molecular target: Factor Va (UniProt P12259); experiment: SPR; Biacore T200; FVa amine-coupled on a CM5 chip (8000-9000 RU); prothrombin 0-10,000 nM injected for 60 s at 30 uL/min; HBS (0.02 M HEPES, 0.15 M NaCl, pH 7.4) with 5 mM CaCl2 and 0.01% Tween-80; kinetic 1:1 Langmuir model

Sequence of Factor Va (P12259 29-737, chain 1 of 2): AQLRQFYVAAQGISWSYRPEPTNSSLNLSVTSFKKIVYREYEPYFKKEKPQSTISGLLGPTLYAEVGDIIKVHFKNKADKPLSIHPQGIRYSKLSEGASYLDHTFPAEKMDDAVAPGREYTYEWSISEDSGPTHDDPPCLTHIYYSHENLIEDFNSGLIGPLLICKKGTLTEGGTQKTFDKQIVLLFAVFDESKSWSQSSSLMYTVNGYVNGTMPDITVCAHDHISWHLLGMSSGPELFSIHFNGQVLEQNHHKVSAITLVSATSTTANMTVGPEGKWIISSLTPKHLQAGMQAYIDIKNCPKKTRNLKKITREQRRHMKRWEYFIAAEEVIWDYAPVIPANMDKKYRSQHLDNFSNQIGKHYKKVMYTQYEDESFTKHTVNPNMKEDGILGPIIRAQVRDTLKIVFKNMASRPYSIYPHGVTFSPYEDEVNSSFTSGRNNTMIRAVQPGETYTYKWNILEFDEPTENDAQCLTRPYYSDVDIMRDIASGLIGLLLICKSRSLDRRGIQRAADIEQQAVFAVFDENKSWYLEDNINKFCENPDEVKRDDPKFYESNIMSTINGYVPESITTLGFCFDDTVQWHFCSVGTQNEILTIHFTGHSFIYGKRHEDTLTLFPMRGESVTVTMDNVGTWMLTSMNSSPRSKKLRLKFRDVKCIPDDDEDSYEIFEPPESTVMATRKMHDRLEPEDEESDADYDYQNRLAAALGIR
Sequence of Factor Va (P12259 1574-2224, chain 2 of 2): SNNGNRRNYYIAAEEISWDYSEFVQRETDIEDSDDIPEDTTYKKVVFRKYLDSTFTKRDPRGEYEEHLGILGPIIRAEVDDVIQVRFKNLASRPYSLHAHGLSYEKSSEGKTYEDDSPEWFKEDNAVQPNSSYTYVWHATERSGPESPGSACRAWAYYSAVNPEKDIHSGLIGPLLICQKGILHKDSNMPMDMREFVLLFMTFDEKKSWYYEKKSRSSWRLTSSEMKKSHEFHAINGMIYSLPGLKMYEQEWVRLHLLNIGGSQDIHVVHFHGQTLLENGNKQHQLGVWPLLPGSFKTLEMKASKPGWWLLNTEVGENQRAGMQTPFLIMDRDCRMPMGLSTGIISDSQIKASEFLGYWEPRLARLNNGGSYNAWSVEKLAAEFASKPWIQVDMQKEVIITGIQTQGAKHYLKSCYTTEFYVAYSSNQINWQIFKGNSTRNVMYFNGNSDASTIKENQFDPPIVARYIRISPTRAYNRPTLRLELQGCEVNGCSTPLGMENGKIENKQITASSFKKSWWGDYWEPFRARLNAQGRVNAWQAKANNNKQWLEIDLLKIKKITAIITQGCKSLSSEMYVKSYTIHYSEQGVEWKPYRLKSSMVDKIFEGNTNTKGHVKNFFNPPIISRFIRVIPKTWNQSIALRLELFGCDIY

“PT6 prothrombin (Gln177Ala, Gln179Ala, Arg181Ala, Leu182Thr, Val184Thr, Thr185Ala) (natural protein)” was tested, and the initial rate of thrombin generation, activation by FXa/FVa (5 nM FXa, 20 nM FVa, 5 mM CaCl2; DAPA) [1] was 0.0053 s⁻¹, the initial rate of thrombin generation, activation by full prothrombinase (20 pM FXa, 20 nM FVa, 50 uM PCPS, 5 mM CaCl2; DAPA) [1] was 55.1 s⁻¹ and the total thrombin generated on activation by FXa/FVa, relative to wild-type prothrombin (% of wild type) [2] was 35. For the same substance, the total thrombin generated on activation by full prothrombinase, decrease against wild-type prothrombin (% lower than wild type) [2] was 42 and the Kd [3] was 2600 nM.
